{"source": "patent US20230270828A1", "about": "“COMPOSITION FOR USE IN THE TREATMENT OF VIRAL INFECTIONS” (BICT S.R.L., priority 2020, published 2023)", "molecules": {"B1": {"name": "lactoferrin (protein, UniProt P24627 20-708, looked up)", "Lactotransferrin": "APRKNVRWCTISQPEWFKCRRWQWRMKKLGAPSITCVRRAFALECIRAIAEKKADAVTLDGGMVFEAGRDPYKLRPVAAEIYGTKESPQTHYYAVAVVKKGSNFQLDQLQGRKSCHTGLGRSAGWIIPMGILRPYLSWTESLEPLQGAVAKFFSASCVPCIDRQAYPNLCQLCKGEGENQCACSSREPYFGYSGAFKCLQDGAGDVAFVKETTVFENLPEKADRDQYELLCLNNSRAPVDAFKECHLAQVPSHAVVARSVDGKEDLIWKLLSKAQEKFGKNKSRSFQLFGSPPGQRDLLFKDSALGFLRIPSKVDSALYLGSRYLTTLKNLRETAEEVKARYTRVVWCAVGPEEQKKCQQWSQQSGQNVTCATASTTDDCIVLVLKGEADALNLDGGYIYTAGKCGLVPVLAENRKSSKHSSLDCVLRPTEGYLAVAVVKKANEGLTWNSLKDKKSCHTAVDRTAGWNIPMGLIVNQTGSCAFDEFFSQSCAPGADPKSRLCALCAGDDQGLDKCVPNSKEKYYGYTGAFRCLAEDVGDVAFVKNDTVWENTNGESTADWAKNLNREDFRLLCLDGTRKPVTEAQSCHLAVAPNHAVVSRSDRAAHVKQVLLHQQALFGKNGKNCPDKFCLFKSETKNLLFNDNTECLAKLGGRPTYEEYLGTEYVTAIANLKKCSTSPLLEACAFLTR", "notes": "multifunctional globular protein of the transferrin family, 80 KDa"}}, "key": {"[1]": {"test_system": "Vero cells (Monkey Kidney Epithelial Cells)", "details": "Vero cells"}, "[2]": {"test_system": "SARS-CoV-2", "assay_type": "cell-based"}}, "note": "Read-outs that look alike come from different tables or passages of the source. Marks after values point to notes of the source that are not given here.", "data": [{"molecule": "B1", "values": [{"measurement": "CC10", "setting": "[1]; 72 h, MTT", "value": ">4.68§ mg/ml"}, {"measurement": "CC50", "setting": "[1]; 72 h, MTT", "value": ">4.68§ mg/ml"}, {"measurement": "maximum nontoxic concentration (assumed)", "setting": "[1]; based on CC50/CC10 data", "value": 4.68, "unit": "mg/mL"}, {"measurement": "Mean ΔCt", "setting": "[2]; 0.59 mg/ml, scheme A (preincubation of virus with compound)", "value": 0.23}, {"measurement": "Mean ΔCt", "setting": "[2]; 0.59 mg/ml, scheme B+C (during and after inoculum)", "value": 0.04}, {"measurement": "Mean ΔCt", "setting": "[2]; 0.59 mg/ml, scheme B+C+D (during, after inoculum and repeated)", "value": "−0.25"}, {"measurement": "Mean ΔCt", "setting": "[2]; 1.17 mg/ml, scheme A (preincubation of virus with compound)", "value": 0.76}, {"measurement": "Mean ΔCt", "setting": "[2]; 1.17 mg/ml, scheme B+C (during and after inoculum)", "value": "−0.08"}, {"measurement": "Mean ΔCt", "setting": "[2]; 1.17 mg/ml, scheme B+C+D (during, after inoculum and repeated)", "value": "−0.21"}, {"measurement": "Mean ΔCt", "setting": "[2]; 2.34 mg/ml, scheme A (preincubation of virus with compound)", "value": 0.42}, {"measurement": "Mean ΔCt", "setting": "[2]; 2.34 mg/ml, scheme B+C (during and after inoculum)", "value": "−0.28"}, {"measurement": "Mean ΔCt", "setting": "[2]; 2.34 mg/ml, scheme B+C+D (during, after inoculum and repeated)", "value": "−0.47"}, {"measurement": "Mean ΔCt", "setting": "[2]; 4.68 mg/ml, scheme A (preincubation of virus with compound)", "value": 0.25}, {"measurement": "Mean ΔCt", "setting": "[2]; 4.68 mg/ml, scheme B+C (during and after inoculum)", "value": "−1.52"}, {"measurement": "Mean ΔCt", "setting": "[2]; 4.68 mg/ml, scheme B+C+D (during, after inoculum and repeated)", "value": "−2.47"}]}]}
